According to patent US20200289608A1 (FUJITA ACADEMY, published 2020):
Where no end group is shown, it is not given here.

Molecular target: T1, cyclic nucleotide-gated channel beta 3 (CNGB3) (human, UniProt Q9NQW8 1-809, limits assumed)
T1 construct: Endogenous protein in patient material; also called human CNGB3
T1 sequence (looked up): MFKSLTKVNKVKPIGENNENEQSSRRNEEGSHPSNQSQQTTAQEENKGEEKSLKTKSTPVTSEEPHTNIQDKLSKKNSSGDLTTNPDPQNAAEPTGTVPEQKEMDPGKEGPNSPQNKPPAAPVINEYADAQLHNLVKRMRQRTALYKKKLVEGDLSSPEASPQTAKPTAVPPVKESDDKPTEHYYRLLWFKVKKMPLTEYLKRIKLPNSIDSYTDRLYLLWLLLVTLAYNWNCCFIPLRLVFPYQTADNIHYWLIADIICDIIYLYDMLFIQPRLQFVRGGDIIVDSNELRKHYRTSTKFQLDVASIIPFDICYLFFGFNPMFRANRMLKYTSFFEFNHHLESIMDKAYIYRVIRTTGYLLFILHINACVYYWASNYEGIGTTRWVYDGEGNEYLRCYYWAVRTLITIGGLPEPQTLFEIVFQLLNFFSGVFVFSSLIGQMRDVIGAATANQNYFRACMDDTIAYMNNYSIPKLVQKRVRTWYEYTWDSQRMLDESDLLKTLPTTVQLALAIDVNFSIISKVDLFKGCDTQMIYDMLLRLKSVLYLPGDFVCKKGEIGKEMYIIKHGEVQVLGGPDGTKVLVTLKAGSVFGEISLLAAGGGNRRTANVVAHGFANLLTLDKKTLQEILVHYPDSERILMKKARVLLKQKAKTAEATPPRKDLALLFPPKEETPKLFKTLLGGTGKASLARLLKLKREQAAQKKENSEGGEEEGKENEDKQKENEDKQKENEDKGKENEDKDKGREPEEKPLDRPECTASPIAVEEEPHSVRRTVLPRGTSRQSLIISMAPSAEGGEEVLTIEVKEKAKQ
Experiment: avidin blotting: serum exosome proteins after SDS-PAGE on PVDF, probed with 1.0 ug/mL biotinylated Z13 peptide and HRP-avidin
Description: The exosome was isolated from the serum using Exosome Isolation Kit (manufactured by Fujifilm Wako Pure Chemical Industries, Ltd.) according to the manufacturer's instruction. Specifically, first, the serum was centrifuged at 1,000×g at 4° C.° for 20 minutes, and the supernatant was recovered. The collected supernatant was centrifuged at 10,000×g at 4° C. for 30 minutes, and the supernatant was transferred to a new tube. Subsequently, 1.0 mL of the supernatant was mixed with exosome capture beads with a rotator at 4° C. for 180 minutes. Subsequently, after washing the capture beads, the exosome was eluted with 100 μL of an elution buffer and stored at −20° C.
An exosome isolated from 800 μL of serum was mixed with a concentrated Laemmli buffer to prepare a measurement sample. The measurement sample was isolated by SDS-PAGE and then transferred to a PVDF membrane. The PVDF membrane was blocked in 5% BSA-containing TBST (0.1 v/v % Tween-20) at room temperature for 60 minutes. The PVDF membrane after blotting was washed and incubated overnight at 4° C.° in 1.0 μg/mL of biotinylated Z13 peptide-containing TBST. […] The CNGB3 on the membrane was detected using a CCD camera system (manufactured by ATTO) and ECL prime (manufactured by GE Healthcare). […]

binding result: binds
B1: biotinylated Z13 peptide (peptide)
peptide: VRRADNRPG
modifications: also: biotin bound, position not given here
notes: Synthesized by GenScript; used at 1.0 ug/mL as the probe in avidin blotting, detected with HRP-avidin
